Source: patent US20240174727A1, “LONG-ACTING NATRIURETIC PEPTIDES AND USES THEREOF” (Eli Lilly and Company, priority 2022, published 2024)
Positions count from the first letter of the chain named. Numbered stars: 1 amine (or outer) side, 2 acyl side, 3 side chain; on linkers, the order of the positions; unused ones are H or OH. Bridge positions count the residues as written; N and C are the ends. Square brackets hold non-standard residues; d marks the D form. Ends that are not written are not given here. * marks the point of attachment. C20 diacid = O=C(O)CCCCCCCCCCCCCCCCCCC(=O)*; γGlu = O=C(O)[C@H](CCC(=O)[*:2])N[*:1]; 4Pal = N[C@@H](Cc1ccncc1)C(=O)O

B1: Example 22 (peptide)
peptide: {C20 diacid}-[γGlu]EKEKEKGS[4Pal]RRSSCFGGRIDRIGAQSGLGCPSFRH-NH2
modifications: disulfide 15-31
SMILES: CC[C@H](C)[C@@H]1NC(=O)[C@H](CCCNC(=N)N)NC(=O)[C@H](CC(=O)O)NC(=O)[C@H]([C@@H](C)CC)NC(=O)[C@H](CCCNC(=N)N)NC(=O)CNC(=O)CNC(=O)[C@H](Cc2ccccc2)NC(=O)[C@@H](NC(=O)[C@H](CO)NC(=O)[C@H](CO)NC(=O)[C@H](CCCNC(=N)N)NC(=O)[C@H](CCCNC(=N)N)NC(=O)[C@H](Cc2ccncc2)NC(=O)[C@H](CO)NC(=O)CNC(=O)[C@H](CCCCN)NC(=O)[C@H](CCC(=O)O)NC(=O)[C@H](CCCCN)NC(=O)[C@H](CCC(=O)O)NC(=O)[C@H](CCCCN)NC(=O)[C@H](CCC(=O)O)NC(=O)CC[C@H](NC(=O)CCCCCCCCCCCCCCCCCCC(=O)O)C(=O)O)CSSC[C@@H](C(=O)N2CCC[C@H]2C(=O)N[C@@H](CO)C(=O)N[C@@H](Cc2ccccc2)C(=O)N[C@@H](CCCNC(=N)N)C(=O)N[C@@H](Cc2c[nH]cn2)C(N)=O)NC(=O)CNC(=O)[C@H](CC(C)C)NC(=O)CNC(=O)[C@H](CO)NC(=O)[C@H](CCC(N)=O)NC(=O)[C@H](C)NC(=O)CNC1=O
B2: Example 24 (peptide)
peptide: {C20 diacid}-[γGlu]EKEKEKGS[4Pal]RRSSCFGGRIDRIGHQSGLGCPSFR[4Pal]-NH2
modifications: disulfide 15-31
SMILES: CC[C@H](C)[C@@H]1NC(=O)[C@H](CCCNC(=N)N)NC(=O)[C@H](CC(=O)O)NC(=O)[C@H]([C@@H](C)CC)NC(=O)[C@H](CCCNC(=N)N)NC(=O)CNC(=O)CNC(=O)[C@H](Cc2ccccc2)NC(=O)[C@@H](NC(=O)[C@H](CO)NC(=O)[C@H](CO)NC(=O)[C@H](CCCNC(=N)N)NC(=O)[C@H](CCCNC(=N)N)NC(=O)[C@H](Cc2ccncc2)NC(=O)[C@H](CO)NC(=O)CNC(=O)[C@H](CCCCN)NC(=O)[C@H](CCC(=O)O)NC(=O)[C@H](CCCCN)NC(=O)[C@H](CCC(=O)O)NC(=O)[C@H](CCCCN)NC(=O)[C@H](CCC(=O)O)NC(=O)CC[C@H](NC(=O)CCCCCCCCCCCCCCCCCCC(=O)O)C(=O)O)CSSC[C@@H](C(=O)N2CCC[C@H]2C(=O)N[C@@H](CO)C(=O)N[C@@H](Cc2ccccc2)C(=O)N[C@@H](CCCNC(=N)N)C(=O)N[C@@H](Cc2ccncc2)C(N)=O)NC(=O)CNC(=O)[C@H](CC(C)C)NC(=O)CNC(=O)[C@H](CO)NC(=O)[C@H](CCC(N)=O)NC(=O)[C@H](Cc2c[nH]cn2)NC(=O)CNC1=O
B3: Example 25 (peptide)
peptide: {C20 diacid}-[γGlu]EKEKEKGS[4Pal]RRSSCFGGRIDRIGHQSGLGCPSFRHRITAREDKQGYA-NH2
modifications: disulfide 15-31
B4: Example 26 (peptide)
peptide: {C20 diacid}-[γGlu]EKEKEKGS[4Pal]RRSSCFGGRIDRIGHQSGLGCPSFRHRITAREDKQGEA-NH2
modifications: disulfide 15-31
B5: Example 29 (peptide)
peptide: {C20 diacid}-[γGlu]EKEKEKGS[4Pal]RRSSCFGGRIGRIGHQSGLGCPSFRHGGPSSGAPPPS-NH2
modifications: disulfide 15-31
B6: Example 33 (peptide)
peptide: {C20 diacid}-[γGlu]EKEKEKGS[4Pal]KRSSCFGGKIDRIGHQSGLGCPSFRHGPSSGAPPPS-NH2
modifications: disulfide 15-31
B7: rat ANP (amidated) (peptide)
peptide: SLRRSSCFGGRIDRIGAQSGLGCNSFRY-NH2
modifications: disulfide 7-23; N-terminus assumed
SMILES: CC[C@H](C)[C@@H]1NC(=O)[C@H](CCCNC(=N)N)NC(=O)[C@H](CC(=O)O)NC(=O)[C@H]([C@@H](C)CC)NC(=O)[C@H](CCCNC(=N)N)NC(=O)CNC(=O)CNC(=O)[C@H](Cc2ccccc2)NC(=O)[C@@H](NC(=O)[C@H](CO)NC(=O)[C@H](CO)NC(=O)[C@H](CCCNC(=N)N)NC(=O)[C@H](CCCNC(=N)N)NC(=O)[C@H](CC(C)C)NC(=O)[C@@H](N)CO)CSSC[C@@H](C(=O)N[C@@H](CC(N)=O)C(=O)N[C@@H](CO)C(=O)N[C@@H](Cc2ccccc2)C(=O)N[C@@H](CCCNC(=N)N)C(=O)N[C@@H](Cc2ccc(O)cc2)C(N)=O)NC(=O)CNC(=O)[C@H](CC(C)C)NC(=O)CNC(=O)[C@H](CO)NC(=O)[C@H](CCC(N)=O)NC(=O)[C@H](C)NC(=O)CNC1=O
B8: Example 34 (peptide)
peptide: {C20 diacid}-[γGlu]EKEKEKGS[4Pal]KRSSCFGGKIDRIGHQSGLGCPSFRHKITAKEDE-NH2
modifications: disulfide 15-31
B9: Example 30 (peptide)
peptide: XEKEKEKGSXKRSSCFGGKIDRIGHQSGLGCPSFRHGGPSSGAPPPS
modifications: HOOC-(CH2)18-CO-(γGlu)-EKEKEKGS-4Pal-KRSS[CFGGKIDRIGHQSGLGC]PSFRHGGPSSGAPPPS-NH2; disulfide linkage between the bracketed Cys
B10: Example 31 (peptide)
peptide: B9 peptide with H25X
modifications: HOOC-(CH2)18-CO-(γGlu)-EKEKEKGS-4Pal-KRSS[CFGGKIDRIG-Dap-QSGLGC]PSFRHGGPSSGAPPPS-NH2; disulfide linkage between the bracketed Cys
B11: Example 37 (peptide)
peptide: XEKEKEKGSXRRSSCFGGRIDRIGHQSGLGCPSFRHGPSSGAPPPS
modifications: HOOC-(CH2)18-CO-(γGlu)-EKEKEKGS-4Pal-RRSS[CFGGRIDRIGHQSGLGC]PSFRH-GPSSGAPPPS-NH2; disulfide linkage between the bracketed Cys
B12: Example 38 (peptide)
peptide: B9 peptide with K11R, K19R, Q26Y
modifications: HOOC-(CH2)18-CO-(γGlu)-EKEKEKGS-4Pal-RRSS[CFGGRIDRIGHYSGLGC]PSFRHGGPSSGAPPPS-NH2; disulfide linkage between the bracketed Cys
B13: Example 55 (peptide)
peptide: B9 peptide with S9E, X10K, K11P, K19R, Q26Y
modifications: HOOC-(CH2)18-CO-(γGlu)-EKEKEKGEKPRSS[CFGGRIDRIGHYSGLGC]PSFRHGGPSSGAPPPS-NH2; disulfide linkage between the bracketed Cys
B14: Example 57 (peptide)
peptide: B9 peptide with S9E, X10K, K11P, K19R, Q26Y
modifications: HOOC-(CH2)18-CO-(γGlu)-EKEKEKGEKPRSS[CFGGRIDRIGHYSGLGC]PSFRHGGPSSGAPPPS-NH2; thioacetal linkage between the bracketed Cys
B15: Example 5 (peptide)
peptide: XEKEKEKGEKPRSSCFGKRIDRIGHYSGLGCPSFRHGSPSSGAPPPS
modifications: HOOC-(CH2)18-CO-(γGlu)-EKEKEKGEKPRSS[CFGKRIDRIGHYSGLGC]PSFRHGSPSSGAPPPS-NH2; thioacetal linkage between the bracketed Cys

molecular target: T1, human NPRA (human, UniProt P16066 33-1061); assay: cell-based or functional assay
T1 sequence (looked up): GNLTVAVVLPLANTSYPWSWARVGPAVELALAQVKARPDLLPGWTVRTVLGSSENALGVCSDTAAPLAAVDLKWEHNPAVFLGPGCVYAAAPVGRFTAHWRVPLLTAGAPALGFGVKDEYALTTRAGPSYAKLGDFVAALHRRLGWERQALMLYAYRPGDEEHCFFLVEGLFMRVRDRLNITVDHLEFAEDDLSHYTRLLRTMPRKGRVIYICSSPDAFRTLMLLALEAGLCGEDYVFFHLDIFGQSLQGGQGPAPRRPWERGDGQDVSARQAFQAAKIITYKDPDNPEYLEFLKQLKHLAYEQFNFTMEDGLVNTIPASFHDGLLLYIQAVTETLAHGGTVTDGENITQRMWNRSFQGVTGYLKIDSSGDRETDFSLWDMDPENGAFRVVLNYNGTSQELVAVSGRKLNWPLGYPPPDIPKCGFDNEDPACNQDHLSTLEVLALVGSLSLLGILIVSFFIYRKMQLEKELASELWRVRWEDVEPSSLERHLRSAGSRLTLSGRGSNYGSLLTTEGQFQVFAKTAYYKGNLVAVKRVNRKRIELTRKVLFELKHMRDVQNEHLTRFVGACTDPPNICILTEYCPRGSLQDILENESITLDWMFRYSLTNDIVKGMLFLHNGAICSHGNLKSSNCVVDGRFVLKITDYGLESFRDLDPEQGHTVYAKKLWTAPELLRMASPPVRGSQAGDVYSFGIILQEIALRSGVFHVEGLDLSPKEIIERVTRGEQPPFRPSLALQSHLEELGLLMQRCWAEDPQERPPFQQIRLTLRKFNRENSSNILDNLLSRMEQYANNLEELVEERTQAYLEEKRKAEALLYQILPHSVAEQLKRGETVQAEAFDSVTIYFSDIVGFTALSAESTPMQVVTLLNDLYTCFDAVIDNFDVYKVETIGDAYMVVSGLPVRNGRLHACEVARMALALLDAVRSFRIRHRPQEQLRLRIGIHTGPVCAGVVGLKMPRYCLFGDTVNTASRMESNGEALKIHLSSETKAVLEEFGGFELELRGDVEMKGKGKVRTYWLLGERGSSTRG

Point of comparison: B1, “cGMP Assay (EC50, pM) w/BSA” value 25100 pM. Against it:
- B2 — lower, 21000 pM
- B3 — lower, 12000 pM
- B4 — lower, 17800 pM
- B5 — higher, 32200 pM
- B6 — lower, 22200 pM
- B7 — lower, 138 pM
- B8 — higher, 26100 pM

Point of comparison: B3, “cGMP Assay (EC50, pM) w/Casein” value 436 pM. Against it:
- B1 — higher, 840 pM
- B2 — higher, 560 pM
- B4 — higher, 682 pM
- B5 — higher, 482 pM
- B6 — lower, 199 pM
- B7 — lower, 128 pM
- B8 — lower, 291 pM

molecular target: T2, rat NPRA (rat, UniProt P18910 29-1057); assay: cell-based or functional assay
T2 sequence (looked up): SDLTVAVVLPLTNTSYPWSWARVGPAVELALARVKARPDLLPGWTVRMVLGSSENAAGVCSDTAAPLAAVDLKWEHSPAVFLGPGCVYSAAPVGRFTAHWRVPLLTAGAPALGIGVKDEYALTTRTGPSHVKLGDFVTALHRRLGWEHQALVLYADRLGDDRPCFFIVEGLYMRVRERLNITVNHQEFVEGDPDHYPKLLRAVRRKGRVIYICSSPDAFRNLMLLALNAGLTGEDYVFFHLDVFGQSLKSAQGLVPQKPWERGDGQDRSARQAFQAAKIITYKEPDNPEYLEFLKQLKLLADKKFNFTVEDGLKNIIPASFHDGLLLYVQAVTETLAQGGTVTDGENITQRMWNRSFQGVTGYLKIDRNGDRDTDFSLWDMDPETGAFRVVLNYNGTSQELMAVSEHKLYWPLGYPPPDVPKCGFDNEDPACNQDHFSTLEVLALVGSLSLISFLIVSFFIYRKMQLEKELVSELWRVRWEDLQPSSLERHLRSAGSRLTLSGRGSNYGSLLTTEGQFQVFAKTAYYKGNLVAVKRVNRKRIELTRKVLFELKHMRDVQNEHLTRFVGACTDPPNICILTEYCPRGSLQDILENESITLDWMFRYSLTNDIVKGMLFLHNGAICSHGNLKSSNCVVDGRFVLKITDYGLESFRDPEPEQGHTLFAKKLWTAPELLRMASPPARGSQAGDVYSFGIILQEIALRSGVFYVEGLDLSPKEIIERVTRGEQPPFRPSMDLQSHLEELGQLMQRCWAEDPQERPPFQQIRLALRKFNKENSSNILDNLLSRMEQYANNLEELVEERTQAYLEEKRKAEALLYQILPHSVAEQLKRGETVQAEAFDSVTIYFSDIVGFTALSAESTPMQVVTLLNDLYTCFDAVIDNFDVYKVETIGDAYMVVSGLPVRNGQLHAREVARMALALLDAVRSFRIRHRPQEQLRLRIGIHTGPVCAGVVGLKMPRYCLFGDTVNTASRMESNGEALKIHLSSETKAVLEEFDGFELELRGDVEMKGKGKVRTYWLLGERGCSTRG

Point of comparison: B7, “cGMP Assay (EC50, pM) w/BSA” value 114 pM. Against it:
- B1 — higher, 192000 pM
- B2 — higher, 66100 pM
- B3 — higher, 57300 pM
- B4 — higher, 119000 pM
- B5 — higher, 1.91e+06 pM
- B6 — higher, 112000 pM
- B8 — higher, 422000 pM
- B11 — higher, 84600 pM
- B12 — higher, 40500 pM
- B15 — higher, 276000 pM

Point of comparison: B14, “cGMP Assay (EC50, pM) w/Casein” value 9500 pM. Against it:
- B1 — lower, 1690 pM
- B2 — lower, 703 pM
- B3 — lower, 654 pM
- B4 — lower, 803 pM
- B5 — higher, 16800 pM
- B9 — lower, 1130 pM
- B10 — higher, 12200 pM
- B6 — lower, 383 pM
- B7 — lower, 73 pM
- B8 — lower, 1200 pM
- B13 — lower, 493 pM
- B15 — lower, 1130 pM
